According to patent US8324344B2, “Membrane transduction peptides and methods of delivering material to a target cell” (STC.UNM, priority 2008, dated 2012):
Entries after “also recorded” stand apart in the source; their conditions may differ.

B1: TFPI-2^1-188: TFPI-2 construct lacking the carboxy-terminal tail (amino acids 189-213 of SEQ ID NO:1) (protein, listed as Homo sapiens)
chain: DAAQEPTGNNAEICLLPLDYGPCRALLLRYYYDRYTQSCRQFLYGGCEGNANNFYTWEACDDACWRIEKVPKVCRLQVSVDDQCEGSTEKYFFNLSSMTCEKFFSGGCHRNRIENRFPDEATCMGFCAPKKIPSFCYSPKDEGLCSANVTRYYFNPRYRTCDAFTYTGCGGNDNNFVSREDCKRACAK
modifications: tissue factor pathway inhibitor-2
B2: TFPI-2: Human tissue factor pathway inhibitor-2, a 32 kDa Kunitz-type serine proteinase inhibitor (SEQ ID NO:1), recombinant from HEK 293 (protein, listed as Homo sapiens)
chain: DAAQEPTGNNAEICLLPLDYGPCRALLLRYYYDRYTQSCRQFLYGGCEGNANNFYTWEACDDACWRIEKVPKVCRLQVSVDDQCEGSTEKYFFNLSSMTCEKFFSGGCHRNRIENRFPDEATCMGFCAPKKIPSFCYSPKDEGLCSANVTRYYFNPRYRTCDAFTYTGCGGNDNNFVSREDCKRACAKALKKKKKMPKLRFASRIRKIRKKQF
modifications: tissue factor pathway inhibitor-2

Assays:
HT-1080 cells [1] = assay: Internalization of offered recombinant proteins in HT-1080 cells, immunoblotting of cytosolic and nuclear fractions; assay type: cell-based, human; conditions: 1 μM
Experimental: HT-1080 cells were grown in six-well plates under standard conditions. At confluence, the cells were treated with fresh medium containing either wild-type TFPI-2, TFPI-2^1-188, R24Q KD1, R24K KD1, or R24K KD1-CT as previously described (Kempaiah and Kisiel, Apoptosis, 2008;13:702-715). Briefly, duplicate wells were treated with purified proteins (1 μM final concentration) and incubated at either 37° C. or 4° C. for different time periods. Two wells were also treated with phosphate-buffered saline (PBS) at each temperature to serve as a control. At selected time points, the media was removed and the cells were rinsed once with PBS. The cells were then washed with 1 M NaCl/PBS for 30 minutes with gentle shaking to dissociate cell surface-bound proteins (Iino et al., Arterioscler. Thromb. Vasc. Biol., 1998;18:40-46). Finally, the cells were rinsed once with PBS, trypsinized and harvested for the preparation of cell lysates and cell fractions.
To prepare total cell lysates, 1-3×10^6 cells were lysed by sonication in 500 μl of lysis buffer containing of 125 mM Tris-HCl (pH 6.8), 2% SDS, 10% glycerol, 50 mM sodium phosphate, 1 mM phenylmethanesulphonylfluoride (PMSF) and protease inhibitor cocktail. The lysate was kept on ice for about 10 minutes, centrifuged for 15 minutes at 10,000×g at 4° C., and the supernatant recovered. To prepare nuclear and cytosolic fractions, approximately 2×10^6 cells were harvested and washed twice with cold PBS by centrifugation at 600×g in a Beckman J-6M/E centrifuge for seven minutes at 4° C. Five volumes of ice cold cytosolic buffer (10 mM Hepes pH 7.4, 0.33 M sucrose, 1 mM MgCl2, 0.1% Triton X-100 and protease inhibitor cocktail) was added to the cells and incubated on ice for 15 minutes. The cytosolic fraction was collected by centrifugation at 900×g for five minutes at 4° C. The resulting undissolved pellet was washed twice with cytosolic buffer followed by centrifugation at 900×g for five minutes at 4° C. Finally, the resulting pellet was resuspended in five volumes of ice cold buffer containing 0.45 M NaCl in 10 mM Hepes (pH 7.4) and protease inhibitor cocktail. The suspension was incubated on ice for an additional 15 minutes to dissolve the nucleus, and subsequently centrifuged at 18,000×g for five minutes at 4° C. The resulting supernatant was collected as the nuclear extract. All samples were boiled for three minutes in the presence of 5% SDS and stored at −20° C. until use.
The cell lysate, cytosol and nuclear fractions were subjected to SDS-PAGE using 4-20% polyacrylamide gradient gels. […] The membranes were then probed with specific antibodies dissolved in fresh blocking buffer. Immunoreactive proteins were identified using HRP-conjugated secondary antibodies and a chemiluminescent reagent system essentially as described (Kempaiah et al., Mol. Cancer, 2007;6:20). The integrity of the cytosolic and nuclear fractions was verified using anti-α-tubulin and anti-histone-H1 antibodies, respectively (Guo et al., Am. J Physiol. Cell Physiol., 2007;292:2095-2102).
The relative intensity of the Western blot bands were quantified using QUANTISCAN software (Biosoft, Cambridge, U.K.). The intensities are reported in arbitrary units (A.U.) obtained by subtracting the background value from the corresponding band's mean value.

HT-1080 cells [2] = assay: Localization of protein in stably-transfected overexpressing HT-1080 cells, immunoblotting and immunocytochemistry; assay type: cell-based, human; conditions: HT-1080 cells stably transfected with cDNA (FIG. 3, FIG. 4C, 4D)
Experimental: HT-1080 and HEK 293 cell lines were stably transfected to overexpress either wild-type human TFPI-2 or a mutant TFPI-2 construct lacking the carboxy-terminal tail (TFPI-2^1-188), and were maintained as described (Chand et al., Blood, 2004;103:1069-1077, Du et al., Arch. Biochem. Biophys:, 2003;417:96-104). An anti-human TFPI-2 murine monoclonal antibody designated as SK-9 was prepared as described (Du et al., Arch. Biochem. Biophys., 2003;417:96-104) and coupled to Affi-Gel 10 according to the manufacturer's recommendation. Recombinant human TFPI-2 was purified from HEK 293 serum-free conditioned media by a two-step chromatography procedure involving heparin-agarose (Sprecher et al., Proc. Natl. Acad. Sci. USA., 1994;91:3353-3357) and SK-9-AffiGel 10 affinity chromatography. In the latter procedure, heparin-agarose purified TFPI-2 was dialyzed against 50 mM Tris-HCl (pH 7.5) and applied to the SK-9-AffiGel 10 column equilibrated at room temperature with this buffer. After a wash step with 50 mM Tris-HCl (pH 7.5)/0.5 M NaCl, TFPI-2 was eluted with 0.1 M glycine (pH 2.5)/0.5 M NaCl into one-tenth volume of 1 M Tris-HCl (pH 8.8) to immediately neutralize the pH 2.5 glycine. […]

importin-α = assay: Co-immunoprecipitation assay of TFPI-2 with importin-α from HT-1080 cell lysates; assay type: binding, human; conditions: lysates of TFPI-2-treated (1 μM) HT-1080 cells or HT-1080 cells overexpressing TFPI-2; SK-9 or anti-importin-α antibody (FIG. 5)
Description: To identify the adapter protein(s) involved in transporting TFPI-2 to the nucleus, we performed co-immunoprecipitation studies using the PROFOUND co-immunoprecipitation kit and cell lysates derived from either vehicle-treated HT-1080 cells, TFPI-2-treated HT-1080 cells or HT-1080 cells overexpressing TFPI-2. Approximately 4.5×10^6 cells from each system were washed twice with PBS, and the lysates prepared in the presence of proteinase inhibitors using the mammalian protein extraction reagent provided in the kit. Complexes of importin-α and TFPI-2 were removed from the lysate by co-immunoprecipitation according to the manufacturer's instructions. In this procedure, antibodies specific for either importin-α or TFPI-2 (SK-9) were covalently linked at room temperature for 16 hours to an amine-reactive gel in coupling buffer (8 mM sodium phosphate/2 mM potassium phosphate/10 mM KCl/140 mM NaCl [pH 7.4]). Cell lysates from the above preparations were added to the antibody-coupled columns and incubated at 4° C. for 18 hours with gentle end-over-end mixing. The columns were then washed several times with coupling buffer containing 0.5 M NaCl to remove non-specifically bound proteins, and finally eluted with the elution buffer provided in the kit. […]

human tumor cell lines = conditions: several tumor cell lines, exogenously offered; Kempaiah and Kisiel 2008; cited from earlier work

Molecule	Internalization to cytosol and nucleus of HT-1080 cells (HT-1080 cells [1]; 37° C., up to 30 minutes, immunoblot (FIG. 4A))	Localization of overexpressed protein (HT-1080 cells [2])	Complex formation with importin-α (co-immunoprecipitation) (importin-α)	Amount localized in the nucleus in 60 minutes at 4° C. (temperature dependence) (HT-1080 cells [1]; 4° C. versus 37° C. (FIG. 1C))	Time of maximal cytosolic and nuclear localization (HT-1080 cells [1]; 24-72 hours incubation) [h]	Intracellular distribution of internalized protein (HT-1080 cells [1]; 24-72 hours incubation, immunoblot (FIG. 1))	Rate of internalization and translocation to the nucleus (HT-1080 cells [1]; 37° C., within the first 15 minutes of offering (FIG. 1A))	Induction of caspase-mediated apoptosis (human tumor cell lines)
B1	is not internalized as readily to either the cytosol or nucleus; also recorded: slowly internalized, but failed to be transported to the nucleus	failed to demonstrate nuclear localization; also recorded: confined to the cytoplasm	–	–	–	–	–	–
B2	–	cytosolic and nuclear localization of TFPI-2	complexes of TFPI-2 and importin-α were immunoprecipitated by each antibody; also recorded: formed complexes with importin-α	roughly equivalent to that observed in five minutes at 37 °C	48	internalized and distributed in both the cytosolic and the nuclear fractions	rapidly internalized by these cells and translocated to the nucleus within minutes of offering; also recorded: rapidly internalized by HT-1080 cells and efficiently translocated to the nucleus	induce caspase-mediated apoptosis
